Laboratory results taken from US20030186841.

What was measured:
Experiment in all cases: cell_activity
C7LBDAS (synthetic) = conditions: ligand-dependent, 6x2C7pGL3Luc
[1] = system: C7LBDAS G400V G400V (human ER numbering) (synthetic); conditions: ligand-dependent, 6x2C7pGL3Luc
2C7LBDAS (synthetic) = conditions: about; estrogen, 6x2C7 SV40 luc, Cos cells

## GCGTGGGCG (double strand) [C7 site of 6x2C7 luc reporter]
C7LBDAS (synthetic)
  activity (fold induction): 10
[1]
  activity (fold induction): 420
2C7LBDAS (synthetic)
  activity (fold induction): 2
